Test results from CN108059680A (BEIJING DONGFANG BIOTECH CO LTD, dated 2018).

Target: T1, CD20 (UniProt P11836 1-297, limits assumed)
T1 construct: whole, on cells; also called 细胞表面CD20; Raji细胞(过表达CD20细胞系)
T1 sequence (looked up): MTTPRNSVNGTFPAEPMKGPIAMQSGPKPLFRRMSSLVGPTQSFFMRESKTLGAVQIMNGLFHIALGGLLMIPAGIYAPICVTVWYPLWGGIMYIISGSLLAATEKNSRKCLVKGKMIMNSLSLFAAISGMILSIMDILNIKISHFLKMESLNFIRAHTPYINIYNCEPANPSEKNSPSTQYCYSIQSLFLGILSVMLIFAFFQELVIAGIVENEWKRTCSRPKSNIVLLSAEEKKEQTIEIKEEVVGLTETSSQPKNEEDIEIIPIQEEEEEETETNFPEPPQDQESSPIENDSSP
Experiment: flow cytometry on Raji cells (CD20-overexpressing), Alexa488 anti-human IgG-Fc detection

- binding result: binds
B1: JY052 (bispecific antibody, human IgG4 S228P, kappa)
light: DIVMTQTPLSLPVTPGEPASISCRSSKSLLHSNGITYLYWYLQKPGQSPQLLIYQMSNLVSGVPDRFSGSGSGTDFTLKISRVEAEDVGVYYCAQNLELPYTFGGGTKVEIKRTVAAPSVFIFPPSDEQLKSGTASVVCLLNNFYPREAKVQWKVDNALQSGNSQESVTEQDSKDSTYSLSSTLTLSKADYEKHKVYACEVTHQGLSSPVTKSFNRGEC
heavy: QVQLVQSGAEVKKPGSSVKVSCKASGYAFSYSWINWVRQAPGQGLEWMGRIFPGDGDTDYNGKFKGRVTITADKSTSTAYMELSSLRSEDTAVYYCARNVFDGYWLVYWGQGTLVTVSSASTKGPSVFPLAPCSRSTSESTAALGCLVKDYFPEPVTVSWNSGALTSGVHTFPAVLQSSGLYSLSSVVTVPSSSLGTKTYTCNVDHKPSNTKVDKRVESKYGPPCPPCPAPEFLGGPSVFLFPPKPKDTLMISRTPEVTCVVVDVSQEDPEVQFNWYVDGVEVHNAKTKPREEQFNSTYRVVSVLTVLHQDWLNGKEYKCKVSNKGLPSSIEKTISKAKGQPREPQVYVLPPSQEEMTKNQVSLLCLVKGFYPSDIAVEWESNGQPENNYLTWPPVLDSDGSFFLYSRLTVDKSRWQEGNVFSCSVMHEALHNHYTQKSLSLSLG
chain: not shown
notes: Three-chain bispecific: anti-CD20 light-heavy pair plus anti-CD3 single-chain Fab-Fc, joined by hinge disulfides and a knob-into-hole structure in CH3; also called 抗CD20×CD3的双特异抗体; 针对CD20和CD3的双特异性抗体
